Assay in all cases: fluorescence polarisation
The target in assay [1] is FITC labeled HCN4 peptide (C-terminal 11 amino acids of HCN4).
The target in assay [2] is FITC labeled HCN2 peptide (C-terminal 11 amino acids of HCN2).
For assay [3], the target named is FITC labeled HCN1 peptide (C-terminal 11 amino acids of HCN1).
Assay [4] has as its target FITC labeled HCN3 peptide (C-terminal 11 amino acids of HCN3).
Assay [5] concerns the target TRIP8b(241-602).
The target in assay [6] is T1, His tagged full length TRIP8b (1b-2) isoform.
T1 chain: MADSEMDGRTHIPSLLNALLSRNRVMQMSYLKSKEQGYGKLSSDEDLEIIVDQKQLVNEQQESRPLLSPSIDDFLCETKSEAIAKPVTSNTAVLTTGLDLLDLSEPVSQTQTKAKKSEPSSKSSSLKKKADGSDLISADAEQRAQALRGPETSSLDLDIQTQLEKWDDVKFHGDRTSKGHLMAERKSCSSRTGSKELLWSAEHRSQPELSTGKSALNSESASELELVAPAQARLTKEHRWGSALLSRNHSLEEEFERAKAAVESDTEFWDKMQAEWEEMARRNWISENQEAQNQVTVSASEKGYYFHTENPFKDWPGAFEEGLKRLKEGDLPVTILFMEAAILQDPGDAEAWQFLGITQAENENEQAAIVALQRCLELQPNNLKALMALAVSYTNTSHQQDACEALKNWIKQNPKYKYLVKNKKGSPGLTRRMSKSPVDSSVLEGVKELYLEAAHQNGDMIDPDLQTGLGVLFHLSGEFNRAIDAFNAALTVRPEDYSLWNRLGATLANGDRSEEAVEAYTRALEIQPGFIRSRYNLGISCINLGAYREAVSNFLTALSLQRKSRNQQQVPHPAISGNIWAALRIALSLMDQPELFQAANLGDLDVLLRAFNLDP

In assay [7] the target is TRIP8b(241-602). The source holds these as a separate data set.
Assay [8] concerns the target TRIP8b(241-602). This is another data set of the same source.
Assay [9] has as its target TRIP8b(241-602). The source holds these as a separate data set.

Like-named read-outs stand apart in the source and are kept apart here. Ends that are not written are not given here.

As to TRIP8b(241-602) (domain or fragment), the Kd in assay [1] was 810 nM; in assay [2] it was 910 nM; in [3], 1230 nM; in [4] it was 10200 nM. Further, the fluorescence polarisation without competitor (mP) in [3] is 224 mP.

Take DSARSRLSSNL [unlabeled HCN2 peptide]: in the assay with TRIP8b(241-602) [5], the IC50 was determined as 760 nM.

With DAEKPRFASNL (also: FITC label, position not given here) [FITC labeled HCN1 peptide (C-terminal 11 amino acids of HCN1)], the Kd in assay [6] stood at 1030 ± 20 nM; in the assay with TRIP8b(241-602) [5], 800 nM.

Consider DAEKPRFASNL [unlabeled HCN1 peptide], for which the IC50 was found to be 890 nM with TRIP8b(241-602) [7], 1770 nM in the assay with TRIP8b(241-602) [8], 700 nM with TRIP8b(241-602) [5] and 1600 nM with TRIP8b(241-602) [9].

With EPVRSKLPSNL [unlabeled HCN4 peptide], the IC50 with TRIP8b(241-602) [5] turned out to be 1930 nM.

One may read the Kd as the equilibrium constant for the complex coming apart. A higher Kd goes with lower affinity. Broadly, the IC50 is the midpoint of a concentration-inhibition curve. Higher therefore signals weaker potency in that assay.
